According to patent publication US9546211B2 (SINGH MOLECULAR MEDICINE, LLC, priority 2014, dated 2017):
“And” between values parts separate entries of the source, which are not always exact repeats. Equal entries are not always repeated.

Key:
TNF-alpha = TNF-alpha (Homo sapiens, UniProt P01375); assay: Inhibition of TNF-alpha cytotoxicity against U937 cells; type: cell-based; settings: constant dose of TNF-alpha at EC50
MDA-MB-231 cells = assay: MTT proliferation assay, MDA-MB-231; type: cell-based, human; settings: for Mean Absorbance (570 nM) ± S.E., Overall Mean: 4 experiments;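 for all read-outs here: human cancer cells grown to 90% confluence before treatment, treated groups compared against a vehicle control group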
PANC-1 cells = assay: MTT proliferation assay, PANC-1; type: cell-based, human; settings: for Mean Absorbance (570 nM) ± S.E., Overall Mean: 3 experiments; for Mean Absorbance (570 nM) ± S.E.: single experiments
[1] = MDA-MB-231, day 3, 10.0 μg/ml, single experiments
[2] = MDA-MB-231, day 3, 100 μg/ml, single experiments
[3] = MDA-MB-231, day 3 post treatment, 0.5 μg/ml

TNF-alpha, sequence (P01375 77-233 limits assumed): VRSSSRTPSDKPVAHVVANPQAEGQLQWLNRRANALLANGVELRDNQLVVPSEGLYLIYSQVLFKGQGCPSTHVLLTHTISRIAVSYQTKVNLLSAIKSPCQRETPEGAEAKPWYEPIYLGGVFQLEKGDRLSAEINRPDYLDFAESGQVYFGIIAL

B1: anti-TNF-alpha VHH69: anti-TNF-alpha sdAb, SEQ ID NO. 46 (TNF_69, SEQ ID NO. 64) (protein)
VHH: EVQLVESGGGSVLAGGSLRLSCVASGFTSRYNYMAWFRQAPGKEREGVATIGTASGSADYYGSVKDRFTISQDNAKNTVYLQMNSLKPEDTAMYYCAARTYGTISLTPSDYRYWGQGTLVTVSS
modifications: Camelid
inhibition of killing of U937 by TNF-alpha (TNF-alpha): inhibit killing

B2: anti-TNF-alpha VHH62: anti-TNF-alpha sdAb, SEQ ID NO. 47 (TNF_62, SEQ ID NO. 66) (protein)
VHH: QVQLVESGGGPVQAGETLRLSCTASGFTFAEADMGWYRQAPGHECELVSTITTEGITSEASSYYADSVRGRFTISRDNAKNMVYLQMNSLKPEDTAVYYCAPDPYAYSTYSDYCSWAQGTQGTLVTVSS
modifications: Camelid
inhibition of killing of U937 by TNF-alpha (TNF-alpha): inhibit killing

B3: B.VHH14: anti-STAT3 single-domain antibody VHH14, SEQ ID NO. 4, bacterial production (protein)
VHH: QVQLVESGGGSVQAGGSLRLSCVASTYTGCMGWFRQAPGKEREGVAALSSRGFAGHYTDSVKGRFSISRDYVKNAVYLQMNTVKPEDAAMYYCAAREGWECGETWLDRTAGGHTYWGQGTLVTVSS
modifications: Camelid
notes: 4, bacterial production
% Inhibition (MDA-MB-231 cells; MDA-MB-231, 3 days, 10.0 μg/ml, single experiments): 23.1% and 20.0% and 38.5% and 23.3%
% Inhibition (MDA-MB-231 cells; MDA-MB-231, 3 days, 100 μg/ml, single experiments): 57.0% and 42.8% and 62.3% and 60.6%
% Inhibition (MDA-MB-231 cells; MDA-MB-231, 5 days, 0.5 μg/ml): 0%
% Inhibition (MDA-MB-231 cells; MDA-MB-231, 5 days, 1.0 μg/ml): 0%
Mean Absorbance (570 nM) ± S.E., Overall Mean (MDA-MB-231 cells; MDA-MB-231, day 3, 10.0 μg/ml): 0.504 ± 0.021
Mean Absorbance (570 nM) ± S.E. (MDA-MB-231 cells; [1]): 0.456 ± 0.048 and 0.499 ± 0.018 and 0.502 ± 0.048 and 0.559 ± 0.041
Mean Absorbance (570 nM) ± S.E., Overall Mean (MDA-MB-231 cells; MDA-MB-231, day 3, 100 μg/ml): 0.302 ± 0.043
Mean Absorbance (570 nM) ± S.E. (MDA-MB-231 cells; [2]): 0.255 ± 0.005 and 0.357 ± 0.019 and 0.308 ± 0.021 and 0.287 ± 0.021
Mean Absorbance (570 nM) ± S.E. (MDA-MB-231 cells; [3]): 0.666 ± 0.022
Mean Absorbance (570 nM) ± S.E., Overall Mean (MDA-MB-231 cells; MDA-MB-231, day 5, 10.0 μg/ml): 0.688 ± 0.131
Mean Absorbance (570 nM) ± S.E., Overall Mean (MDA-MB-231 cells; MDA-MB-231, day 5, 100 μg/ml): 0.475 ± 0.0690

B4: H.VHH14: anti-STAT3 sdAb VHH14, SEQ ID NO. 4; H. not defined, presumably mammalian production (protein)
VHH: B3 VHH
modifications: Camelid
% Inhibition (MDA-MB-231 cells; MDA-MB-231, 5 days, 0.5 μg/ml): 9.5%
% Inhibition (MDA-MB-231 cells; MDA-MB-231, 5 days, 1.0 μg/ml): 4.9%
% Inhibition (MDA-MB-231 cells; MDA-MB-231, 5 days, 10.0 μg/ml, single experiments): 18.2%
% Inhibition (MDA-MB-231 cells; MDA-MB-231, 5 days, 100 μg/ml, single experiments): 18.9%
Mean Absorbance (570 nM) ± S.E. (MDA-MB-231 cells; [1]): 0.588 ± 0.020
Mean Absorbance (570 nM) ± S.E. (MDA-MB-231 cells; [2]): 0.416 ± 0.030
Mean Absorbance (570 nM) ± S.E. (MDA-MB-231 cells; [3]): 0.485 ± 0.040
Mean Absorbance (570 nM) ± S.E. (MDA-MB-231 cells; MDA-MB-231, day 5, 10.0 μg/ml, single experiments): 0.804 ± 0.015
Mean Absorbance (570 nM) ± S.E. (MDA-MB-231 cells; MDA-MB-231, day 5, 100 μg/ml, single experiments): 0.797 ± 0.010
Mean Absorbance (570 nM) ± S.E., Overall Mean (PANC-1 cells; PANC-1, day 3, 10.0 μg/ml): 1.089 ± 0.085
Mean Absorbance (570 nM) ± S.E. (PANC-1 cells; PANC-1, day 3, 10.0 μg/ml): 0.920 ± 0.133 and 1.183 ± 0.114 and 1.163 ± 0.044
Mean Absorbance (570 nM) ± S.E., Overall Mean (PANC-1 cells; PANC-1, day 3, 100 μg/ml): 0.906 ± 0.054
Mean Absorbance (570 nM) ± S.E. (PANC-1 cells; PANC-1, day 3, 100 μg/ml): 0.808 ± 0.239 and 0.993 ± 0.088 and 0.916 ± 0.088
Mean Absorbance (570 nM) ± S.E., Overall Mean (PANC-1 cells; PANC-1, day 5, 10.0 μg/ml): 1.368 ± 0.247
Mean Absorbance (570 nM) ± S.E. (PANC-1 cells; PANC-1, day 5, 10.0 μg/ml): 1.859 ± 0.033 and 1.165 ± 0.015 and 1.081 ± 0.103
Mean Absorbance (570 nM) ± S.E., Overall Mean (PANC-1 cells; PANC-1, day 5, 100 μg/ml): 0.754 ± 0.333
